Results on one molecule are retold here after patent US20120027687A1, “FATTY ACID PROTEIN KINASE C ACTIVATORS AND ANTICOAGULANT FOR THE TREATMENT OF STROKE” (priority 2010, published 2012).

In this assay the test system is ischemic stroke (MCAO). Description: Transient focal ischemia (MCAO) model of stroke. Type of assay: in vivo, rat. The settings on record: rats; rTPA 6 hours after stroke, with or without bryostatin-1 2 hours later. As to the method:
A transient animal model of focal ischemia was used for these experiments. The middle cerebral artery (MCA) was surgically dissected and occluded in anesthetized rats by ligature, followed by reperfusion after a defined period (about 2 hours). Animal models transient ischemia via occlusion of the MCA (MCAO) are described in, e.g., Sicard and Fisher, Exp. & Transl. Stroke Med. (2009), vol. 1, pp. 1-7.

B1: rTPA: recombinant tissue plasminogen activator, thrombolytic serine protease (protein, UniProt P00750 36-562, looked up)
Tissue-type plasminogen …: SYQVICRDEKTQMIYQQHQSWLRPVLRSNRVEYCWCNSGRAQCHSVPVKSCSEPRCFNGGTCQQALYFSDFVCQCPEGFAGKCCEIDTRATCYEDQGISYRGTWSTAESGAECTNWNSSALAQKPYSGRRPDAIRLGLGNHNYCRNPDRDSKPWCYVFKAGKYSSEFCSTPACSEGNSDCYFGNGSAYRGTHSLTESGASCLPWNSMILIGKVYTAQNPSAQALGLGKHNYCRNPDGDAKPWCHVLKNRRLTWEYCDVPSCSTCGLRQYSQPQFRIKGGLFADIASHPWQAAIFAKHRRSPGERFLCGGILISSCWILSAAHCFQERFPPHHLTVILGRTYRVVPGEEEQKFEVEKYIVHKEFDDDTYDNDIALLQLKSDSSRCAQESSVVRTVCLPPADLQLPDWTECELSGYGKHEALSPFYSERLKEAHVRLYPSSRCTSQHLLNRTVTDNMLCAGDTRSGGPQANLHDACQGDSGGPLVCLNDGRMTLVGIISWGLGCGQKDVPGVYTKVTNYLDWIRDNMRP
Consider B1, for which the “mortality 24 hours later” value worked out at 44%.
